Reference: publication PMC11806767, “The tryptophan-aspartate (WD) repeat domain of bovine Coronin-1A promotes mycobacterial survival by inhibiting calcium signaling-mediated phagosome-lysosome fusion” (Veterinary Research, 2025)

Molecular target: the molecule itself
Experiment: native gel or EMSA

B1: bovine Coronin-1A (p3×Flag-bCoronin-1A) (natural protein)
chain: MSRQVVRSSKFRHVFGQPAKADQCYEDVRVSQNTWDSGFCAVNPKFVALICEASGGGAFLVLPLGKTGRVDKNVPMVCGHTAPVLDIAWCPHNDNVIASGSEDCSVMVWEIPDGGLTLPLREPVVTLEGHTKRVGIVAWHPTAQNVLLSAGCDNVILVWDVGTGVAVLTLGSDVHPDTIYSVDWSRDGALICTSCRDKRVRIIEPRKGTIVAEKDRPHEGTRPVRAVFVSDGKILTTGFSRMSERQVALWDTKHLEEPLSLQELDTSSGVLLPFFDPDTNIVYLCGKGDSSIRYFEITSEAPFLHYLSMFSSKESQRGMGYMPKRGLEVNKCEIARFYKLHERKCEPIAMTVPRKSDLFQEDLYPPTAGPDAALTAEEWLGGRDAGPLLISLKDGYVPPKSRELRVNRGLDTGRKRTTPEASGAPSSDAISRLEEEMRKLQATVQELQKRLDRLEETVQAK
stoichiometry N: 3
